Laboratory results: patent publication US20260166128A1, “HUMAN AMYLIN ANALOG, AND DERIVATIVE THEREOF AND USE THEREOF” (priority 2022, published 2026)
Numbered stars: 1 amine (or outer) side, 2 acyl side, 3 side chain; on linkers, the order of the positions; unused ones are H or OH. Bridge positions count the residues as written; N and C are the ends. Square brackets hold non-standard residues; d marks the D form. Primed or numbered codes have the meaning given here. Side chains are listed from the residue outwards. Peptide text beside a SMILES is read from it. * marks the point of attachment. C20 diacid = O=C(O)CCCCCCCCCCCCCCCCCCC(=O)*; C18 diacid = O=C(O)CCCCCCCCCCCCCCCCC(=O)*; X1 = N[C@@H]1CCN([*:1])[C@@H]1C(=O)[*:2]; C16 diacid = O=C(O)CCCCCCCCCCCCCCC(=O)*; γGlu = O=C(O)[C@H](CCC(=O)[*:2])N[*:1]; C14 diacid = O=C(O)CCCCCCCCCCCCC(=O)*; C12 diacid = O=C(O)CCCCCCCCCCC(=O)*; HOOC(CH2)8CO = O=C(O)CCCCCCCCC(=O)*; Trx′ = not defined here

Test: Freeze-thaw stability of derivatives (freeze-thaw yield by liquid chromatography)
Assay type: physicochemical
Settings: for Dissolution property: appearance after dissolution at 0.2 mg/ml in 20 mM phosphate buffer solution (PB) (pH 7.0); for Freeze storage property: appearance after overnight storage at −20° C. and thawing to room temperature, 0.2 mg/ml in 20 mM PB (pH 7.0); for Freeze storage yield: concentration of polypeptide after freezing and thawing / concentration before, by liquid chromatography, −20° C. overnight
Description: The freeze-dried powder of the polypeptide analog derivative prepared in Example 1 was mixed with a buffer solution according to a mass-volume ratio of 0.2 mg/ml, the polypeptide was dissolved with 20 mM phosphate buffer solution (PB) (pH 7.0), the sample was stored at −20° C. for overnight storage, and then the sample was taken out to be restored to room temperature for thawing. During the experiment, property changes of the polypeptide after dissolution and freezing and thawing were observed and recorded respectively, and concentrations of the polypeptide before and after the freezing and thawing were detected by the following liquid chromatography method: Materials and equipment: high-performance liquid chromatographic instrument (Agilent 1200), ultrapure water (18.2 MΩ self-manufactured ultrapure water), acetonitrile (HPLC grade), and trifluoroacetic acid (HPLC grade); and reversed-phase chromatographic column: […] A sample to be tested was centrifuged at 10,000 rpm and 4° C. for 3 minutes, and a supernatant was taken and added into a liquid-phase sample injection bottle. […] A freeze-thaw yield was calculated by the following formula: freeze-thaw yield=concentration of polypeptide after the freezing and thawing/concentration of polypeptide before the freezing and thawing.

| Compound | Dissolution property | Freeze storage property | Freeze storage yield [%] |
| --- | --- | --- | --- |
| CC[C@H](C)[C@H](NC(=O)[C@@H]1CCCN1C(=O)[C@H](CCCCNC(=O)CC[C@H](NC(=O)CCCCCCCCCCCCCCCCCCC(=O)O)C(=O)O)NC(=O)[C@H](CC(C)C)NC(=O)[C@H](CC(N)=O)NC(=O)[C@H](CC(N)=O)NC(=O)[C@H](CO)NC(=O)[C@H](CO)NC(=O)[C@H](Cc1c[nH]cn1)NC(=O)[C@H](CCCNC(=N)N)NC(=O)[C@H](CC(C)C)NC(=O)[C@H](Cc1ccccc1)NC(=O)[C@H](CC(=O)O)NC(=O)[C@H](C)NC(=O)[C@H](CC(C)C)NC(=O)[C@H](CCCNC(=N)N)NC(=O)[C@H](CCC(N)=O)NC(=O)[C@@H](NC(=O)[C@H](C)NC(=O)[C@@H]1CSSC[C@H](NC(=O)[C@@H](N)CCCNC(=N)N)C(=O)N[C@@H](CC(N)=O)C(=O)N[C@@H]([C@@H](C)O)C(=O)N[C@@H](C)C(=O)N[C@@H]([C@@H](C)O)C(=O)N1)[C@@H](C)O)C(=O)N[C@@H](CC(C)C)C(=O)N1CCC[C@H]1C(=O)N1CCC[C@H]1C(=O)N[C@H](C(=O)N[C@@H](CC(N)=O)C(=O)N[C@H](C(=O)NCC(=O)N[C@@H](CO)C(=O)N[C@@H](CC(N)=O)C(=O)N[C@H](C(=O)N1CCC[C@H]1C(N)=O)[C@@H](C)O)C(C)C)[C@@H](C)O [PD042] (H-RCNTATCATQRLADFLRHSSNNLK([γGlu-C20 diacid])PILPPTNVGSNTP-NH2; disulfide 2-7 (inferred); N-terminus assumed) | Clear | Clear | 95.19 |
| CC[C@H](C)[C@H](NC(=O)[C@@H]1CCCN1C(=O)[C@H](CCCCNC(=O)CC[C@H](NC(=O)CCCCCCCCCCCCCCCCCCC(=O)O)C(=O)O)NC(=O)[C@H](CC(C)C)NC(=O)[C@H](CC(N)=O)NC(=O)[C@H](CC(N)=O)NC(=O)[C@H](CO)NC(=O)[C@H](CO)NC(=O)[C@H](Cc1c[nH]cn1)NC(=O)[C@H](CCCNC(=N)N)NC(=O)[C@H](CC(C)C)NC(=O)[C@H](Cc1ccccc1)NC(=O)[C@H](CC(=O)O)NC(=O)[C@H](C)NC(=O)[C@H](CC(C)C)NC(=O)[C@H](CCCNC(=N)N)NC(=O)[C@H](CCC(N)=O)NC(=O)[C@@H](NC(=O)[C@H](C)NC(=O)[C@@H]1CSSC[C@H](NC(=O)[C@@H](N)CCCNC(=N)N)C(=O)N[C@@H](CC(N)=O)C(=O)N[C@@H]([C@@H](C)O)C(=O)N[C@@H](C)C(=O)N[C@@H]([C@@H](C)O)C(=O)N1)[C@@H](C)O)C(=O)N[C@@H](CC(C)C)C(=O)N1CCC[C@H]1C(=O)N1CCC[C@H]1C(=O)N[C@H](C(=O)N[C@@H](CC(N)=O)C(=O)N[C@H](C(=O)NCC(=O)N[C@@H](CO)C(=O)N[C@@H](CC(N)=O)C(=O)N[C@H](C(=O)N1CCC[C@H]1C(N)=O)[C@@H](C)O)C(C)C)[C@@H](C)O [PD048] (H-RCNTATCATQRLADFLRHSSNNLK([γGlu-C20 diacid])PILPPTNVGSNTP-NH2; disulfide 2-7 (inferred); N-terminus assumed) | Clear | Clear | 102.16 |
| CC[C@H](C)[C@H](NC(=O)[C@@H]1CCCN1C(=O)[C@H](CCCCNC(=O)CC[C@H](NC(=O)CCCCCCCCCCCCCCCCCCC(=O)O)C(=O)O)NC(=O)[C@H](CC(C)C)NC(=O)[C@H](CC(N)=O)NC(=O)[C@H](CC(N)=O)NC(=O)[C@H](CO)NC(=O)[C@H](CO)NC(=O)[C@H](Cc1c[nH]cn1)NC(=O)[C@H](CCCNC(=N)N)NC(=O)[C@H](CC(C)C)NC(=O)[C@H](Cc1ccccc1)NC(=O)[C@H](CCC(=O)O)NC(=O)[C@H](C)NC(=O)[C@H](CC(C)C)NC(=O)[C@H](CCCNC(=N)N)NC(=O)[C@H](CCC(N)=O)NC(=O)[C@@H](NC(=O)[C@H](C)NC(=O)[C@@H]1CSSC[C@H](NC(=O)[C@@H](N)CCCNC(=N)N)C(=O)N[C@@H](CC(N)=O)C(=O)N[C@@H]([C@@H](C)O)C(=O)N[C@@H](C)C(=O)N[C@@H]([C@@H](C)O)C(=O)N1)[C@@H](C)O)C(=O)N[C@@H](CC(C)C)C(=O)N1CCC[C@H]1C(=O)N1CCC[C@H]1C(=O)N[C@H](C(=O)N[C@@H](CC(N)=O)C(=O)N[C@H](C(=O)NCC(=O)N[C@@H](CO)C(=O)N[C@@H](CC(N)=O)C(=O)N[C@H](C(=O)N1CC[C@@H](N)[C@H]1C(N)=O)[C@@H](C)O)C(C)C)[C@@H](C)O [PD061] (H-RCNTATCATQRLAEFLRHSSNNLK([γGlu-C20 diacid])PILPPTNVGSNT[X1]-NH2; disulfide 2-7; N-terminus assumed) | Clear | Clear | 100.32 |
| CC[C@H](C)[C@H](NC(=O)[C@@H]1CCCN1C(=O)[C@H](CCCCNC(=O)CC[C@H](NC(=O)CCCCCCCCCCCCCCCCCCC(=O)O)C(=O)O)NC(=O)[C@H](CC(C)C)NC(=O)[C@H](CC(N)=O)NC(=O)[C@H](CC(N)=O)NC(=O)[C@H](CO)NC(=O)[C@H](CO)NC(=O)[C@H](Cc1c[nH]cn1)NC(=O)[C@H](CCCNC(=N)N)NC(=O)[C@H](CC(C)C)NC(=O)[C@H](Cc1ccccc1)NC(=O)[C@H](CC(=O)O)NC(=O)[C@H](C)NC(=O)[C@H](CC(C)C)NC(=O)[C@H](CCCNC(=N)N)NC(=O)[C@H](CCC(N)=O)NC(=O)[C@@H](NC(=O)[C@H](C)NC(=O)[C@@H]1CSSC[C@H](NC(=O)[C@@H](N)CCCNC(=N)N)C(=O)N[C@@H](CC(N)=O)C(=O)N[C@@H]([C@@H](C)O)C(=O)N[C@@H](C)C(=O)N[C@@H]([C@@H](C)O)C(=O)N1)[C@@H](C)O)C(=O)N[C@@H](CC(C)C)C(=O)N1CCC[C@H]1C(=O)N1CCC[C@H]1C(=O)N[C@H](C(=O)N[C@@H](CC(N)=O)C(=O)N[C@H](C(=O)NCC(=O)N[C@@H](CO)C(=O)N[C@@H](CC(N)=O)C(=O)N[C@H](C(=O)N1CC[C@@H](N)[C@H]1C(N)=O)[C@@H](C)O)C(C)C)[C@@H](C)O [PD062] (H-RCNTATCATQRLADFLRHSSNNLK([γGlu-C20 diacid])PILPPTNVGSNT[X1]-NH2; disulfide 2-7; N-terminus assumed) | Clear | Clear | 102.63 |
| PD133: KCNTATCATQRLADFLRHSSNNLGPILPPTNVGSNT-trans-Hyp-NH2; N-terminal; Trx + C20 diacid ({C20 diacid-Trx′}-KCNTATCATQRLADFLRHSSNNLGPILPPTNVGSNT-{trans‑Hyp-NH2}; disulfide 2-7 (inferred); reading uncertain; also: printed as KCNTATCATQRLADFLRHSSNNLGPILPPTNVGSNT-trans-Hyp-NH2) | Clear | Clear | 98.24 |
| PD135: KCNTATCATQRLADFLRHSSNNLGPILPPTNVGSNT-trans-Hyp-NH2; N-terminal, 1K-ϵ; γGlu + C10 diacid ({HOOC(CH2)8CO-γGlu}-K([γGlu-HOOC(CH2)8CO])CNTATCATQRLADFLRHSSNNLGPILPPTNVGSNT-{trans‑Hyp-NH2}; disulfide 2-7 (inferred)) | Clear | Clear | 110.57 |
| PD136: KCNTATCATQRLADFLRHSSNNLGPILPPTNVGSNT-trans-Hyp-NH2; N-terminal, 1K-ϵ; γGlu + C12 diacid ({C12 diacid-γGlu}-K([γGlu-C12 diacid])CNTATCATQRLADFLRHSSNNLGPILPPTNVGSNT-{trans‑Hyp-NH2}; disulfide 2-7 (inferred)) | Clear | Clear | 108.07 |
| PD137: KCNTATCATQRLADFLRHSSNNLGPILPPTNVGSNT-trans-Hyp-NH2; N-terminal, 1K-ϵ; γGlu + C14 diacid ({C14 diacid-γGlu}-K([γGlu-C14 diacid])CNTATCATQRLADFLRHSSNNLGPILPPTNVGSNT-{trans‑Hyp-NH2}; disulfide 2-7 (inferred)) | Clear | Clear | 102.20 |
| PD138: KCNTATCATQRLADFLRHSSNNLGPILPPTNVGSNT-trans-Hyp-NH2; N-terminal, 1K-ϵ; γGlu + C16 diacid ({C16 diacid-γGlu}-K([γGlu-C16 diacid])CNTATCATQRLADFLRHSSNNLGPILPPTNVGSNT-{trans‑Hyp-NH2}; disulfide 2-7 (inferred)) | Clear | Clear | 106.03 |
| PD139: KCNTATCATQRLADFLRHSSNNLGPILPPTNVGSNT-trans-Hyp-NH2; N-terminal, 1K-ϵ; γGlu + C18 diacid ({C18 diacid-γGlu}-K([γGlu-C18 diacid])CNTATCATQRLADFLRHSSNNLGPILPPTNVGSNT-{trans‑Hyp-NH2}; disulfide 2-7 (inferred)) | Clear | Clear | 104.78 |
| PD148: KCNTATCATQRLADFLRHSSNNLKPILPPTNVGSNT-trans-Hyp-NH2; N-terminal, 1K-ϵ; γGlu + C10 diacid ({HOOC(CH2)8CO-γGlu}-K([γGlu-HOOC(CH2)8CO])CNTATCATQRLADFLRHSSNNLKPILPPTNVGSNT-{trans‑Hyp-NH2}; disulfide 2-7 (inferred)) | Clear | Clear | 103.34 |
| PD149: KCNTATCATQRLADFLRHSSNNLKPILPPTNVGSNT-trans-Hyp-NH2; N-terminal, 1K-ϵ; γGlu + C12 diacid ({C12 diacid-γGlu}-K([γGlu-C12 diacid])CNTATCATQRLADFLRHSSNNLKPILPPTNVGSNT-{trans‑Hyp-NH2}; disulfide 2-7 (inferred)) | Clear | Clear | 99.99 |
